Experimental data reported in doi:10.1101/2024.09.23.614597.

Target: PelC lipoprotein (P. aeruginosa)
Assay: cryo-EM structure

In the case of PelC lipoprotein (natural protein), the stoichiometry N was 12 subunits.
